Results taken from patent US20180155451A1 (published 2018).

T1: FcγRIIb extracellular domain with C-terminal His tag (human, UniProt P31994 43-217)
T1 construct: extracellular domain; Expressed in FreeStyle293 cells; used as analyte in Biacore; also called FcgRIIb; 2b; not shown: C-terminal His tag
T1 sequence (looked up): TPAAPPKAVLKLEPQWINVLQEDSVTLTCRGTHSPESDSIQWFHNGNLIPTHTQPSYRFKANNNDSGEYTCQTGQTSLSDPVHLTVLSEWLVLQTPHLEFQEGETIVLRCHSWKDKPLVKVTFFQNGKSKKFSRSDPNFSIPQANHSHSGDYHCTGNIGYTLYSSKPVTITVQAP

B1: GpH7-B3 variant P271_01G/GpL16-k0 (Ho Ab) (antibody, human IgG1, kappa)
heavy: not shown
light: DIVMTQSPLSLPVTPGEPASISCQASESLVHSNRNTYLHWYLQKPGQSPQLLIYKVSNRFSGVPDRFSGSGSGTDFTLKISRVEAEDVGVYYCSQNTHVPPTFGQGTKVEIERTVAAPSVFIFPPSDEQLKSGTASVVCLLNNFYPREAKVQWKVDNALQSGNSQESVTEQDSKDSTYSLSSTLTLSKADYEKHKVYACEVTHQGLSSPVTKSFNRGEC
notes: Substitution in both H chains; position in EU numbering; also called P271G homodimerized antibody
B2: GpH7-B3 variant S267_08L/GpL16-k0 (Ho Ab) (antibody, human IgG1, kappa)
heavy: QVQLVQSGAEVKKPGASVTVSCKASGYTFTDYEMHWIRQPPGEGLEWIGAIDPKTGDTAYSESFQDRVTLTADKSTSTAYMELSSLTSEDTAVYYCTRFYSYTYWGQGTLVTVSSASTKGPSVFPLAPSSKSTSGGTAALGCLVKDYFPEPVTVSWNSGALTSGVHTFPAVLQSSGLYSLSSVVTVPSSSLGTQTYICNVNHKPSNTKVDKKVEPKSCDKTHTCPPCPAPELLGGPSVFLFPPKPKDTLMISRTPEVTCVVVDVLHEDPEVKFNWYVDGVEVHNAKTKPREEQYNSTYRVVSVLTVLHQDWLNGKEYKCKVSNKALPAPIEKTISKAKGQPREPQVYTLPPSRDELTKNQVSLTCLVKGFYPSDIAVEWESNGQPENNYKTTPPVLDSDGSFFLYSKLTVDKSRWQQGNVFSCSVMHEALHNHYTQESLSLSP
light: B1 light
notes: Substitution in both H chains; position in EU numbering; also called S267L homodimerized antibody
B3: GpH7-B3 variant K334_15Y/GpL16-k0 (Ho Ab) (antibody, human IgG1, kappa)
heavy: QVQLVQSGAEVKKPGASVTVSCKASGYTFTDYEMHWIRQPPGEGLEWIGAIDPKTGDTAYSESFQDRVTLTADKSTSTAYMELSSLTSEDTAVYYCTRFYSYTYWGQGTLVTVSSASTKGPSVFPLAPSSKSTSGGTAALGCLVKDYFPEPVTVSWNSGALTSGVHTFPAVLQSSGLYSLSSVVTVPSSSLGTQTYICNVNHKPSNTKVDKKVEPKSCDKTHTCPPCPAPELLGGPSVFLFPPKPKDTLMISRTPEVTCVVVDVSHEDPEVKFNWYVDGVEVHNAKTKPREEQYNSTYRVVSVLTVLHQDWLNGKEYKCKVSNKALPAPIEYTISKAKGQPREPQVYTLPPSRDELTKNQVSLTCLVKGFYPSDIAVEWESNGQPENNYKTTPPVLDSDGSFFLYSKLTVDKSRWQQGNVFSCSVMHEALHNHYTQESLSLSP
light: B1 light
notes: Substitution in both H chains; position in EU numbering; also called K334Y homodimerized antibody
B4: GpH7-B3 variant S298_08L/GpL16-k0 (Ho Ab) (antibody, human IgG1, kappa)
heavy: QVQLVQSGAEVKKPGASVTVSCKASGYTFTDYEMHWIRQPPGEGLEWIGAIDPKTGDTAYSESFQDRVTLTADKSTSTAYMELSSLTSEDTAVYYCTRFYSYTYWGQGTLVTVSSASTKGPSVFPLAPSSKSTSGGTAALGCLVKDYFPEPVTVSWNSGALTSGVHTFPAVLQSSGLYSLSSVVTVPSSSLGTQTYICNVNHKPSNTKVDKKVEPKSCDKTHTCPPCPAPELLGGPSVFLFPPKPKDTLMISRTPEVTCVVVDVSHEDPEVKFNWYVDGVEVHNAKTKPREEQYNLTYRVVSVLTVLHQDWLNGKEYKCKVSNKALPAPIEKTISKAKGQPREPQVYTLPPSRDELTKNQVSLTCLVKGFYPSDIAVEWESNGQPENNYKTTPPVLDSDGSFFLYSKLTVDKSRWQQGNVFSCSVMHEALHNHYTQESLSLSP
light: B1 light
notes: Substitution in both H chains; position in EU numbering; also called S298L homodimerized antibody
B5: GpH7-B3 variant P331_04F/GpL16-k0 (Ho Ab) (antibody, human IgG1, kappa)
heavy: not shown
light: B1 light
notes: Substitution in both H chains; position in EU numbering; also called P331F homodimerized antibody
B6: GpH7-B3 variant L328_06M/GpL16-k0 (Ho Ab) (antibody, human IgG1, kappa)
heavy: not shown
light: B1 light
notes: Substitution in both H chains; position in EU numbering; also called L328M homodimerized antibody
B7: GpH7-B3 variant P238_08L/GpL16-k0 (Ho Ab) (antibody, human IgG1, kappa)
heavy: not shown
light: B1 light
notes: Substitution in both H chains; position in EU numbering; also called P238L homodimerized antibody
B8: GpH7-B3 variant S239_07I/GpL16-k0 (Ho Ab) (antibody, human IgG1, kappa)
heavy: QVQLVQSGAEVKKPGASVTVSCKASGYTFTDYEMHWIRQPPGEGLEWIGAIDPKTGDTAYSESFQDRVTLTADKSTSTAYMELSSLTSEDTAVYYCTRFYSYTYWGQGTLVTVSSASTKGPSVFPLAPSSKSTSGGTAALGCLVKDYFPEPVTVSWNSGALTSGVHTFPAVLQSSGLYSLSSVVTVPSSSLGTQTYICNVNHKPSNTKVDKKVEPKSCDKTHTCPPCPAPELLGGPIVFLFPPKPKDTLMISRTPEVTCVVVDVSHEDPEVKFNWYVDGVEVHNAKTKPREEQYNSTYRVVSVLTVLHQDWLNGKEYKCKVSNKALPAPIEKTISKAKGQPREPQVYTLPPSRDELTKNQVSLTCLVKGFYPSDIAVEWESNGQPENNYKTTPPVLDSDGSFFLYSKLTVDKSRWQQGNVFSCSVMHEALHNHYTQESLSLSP
light: B1 light
notes: Substitution in both H chains; position in EU numbering; also called S239I homodimerized antibody
B9: GpH7-B3 variant L328_14T/GpL16-k0 (Ho Ab) (antibody, human IgG1, kappa)
heavy: not shown
light: B1 light
notes: Substitution in both H chains; position in EU numbering; also called L328T homodimerized antibody
B10: GpH7-B3 variant S267_10E/GpL16-k0 (Ho Ab) (antibody, human IgG1, kappa)
heavy: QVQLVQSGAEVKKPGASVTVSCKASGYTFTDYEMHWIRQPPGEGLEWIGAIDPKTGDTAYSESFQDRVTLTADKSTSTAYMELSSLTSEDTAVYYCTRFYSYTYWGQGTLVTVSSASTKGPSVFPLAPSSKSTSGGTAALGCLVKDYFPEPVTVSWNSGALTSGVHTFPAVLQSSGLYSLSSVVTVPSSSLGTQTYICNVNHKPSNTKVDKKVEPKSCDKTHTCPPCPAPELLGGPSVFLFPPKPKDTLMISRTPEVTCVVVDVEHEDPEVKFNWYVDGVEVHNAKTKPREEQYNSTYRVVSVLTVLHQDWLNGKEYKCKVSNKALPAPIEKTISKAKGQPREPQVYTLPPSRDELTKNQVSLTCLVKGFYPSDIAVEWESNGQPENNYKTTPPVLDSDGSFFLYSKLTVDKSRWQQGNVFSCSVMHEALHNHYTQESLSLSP
light: B1 light
notes: Substitution in both H chains; position in EU numbering; also called S267E homodimerized antibody
B11: GpH7-B3 variant S239_09D/GpL16-k0 (Ho Ab) (antibody, human IgG1, kappa)
heavy: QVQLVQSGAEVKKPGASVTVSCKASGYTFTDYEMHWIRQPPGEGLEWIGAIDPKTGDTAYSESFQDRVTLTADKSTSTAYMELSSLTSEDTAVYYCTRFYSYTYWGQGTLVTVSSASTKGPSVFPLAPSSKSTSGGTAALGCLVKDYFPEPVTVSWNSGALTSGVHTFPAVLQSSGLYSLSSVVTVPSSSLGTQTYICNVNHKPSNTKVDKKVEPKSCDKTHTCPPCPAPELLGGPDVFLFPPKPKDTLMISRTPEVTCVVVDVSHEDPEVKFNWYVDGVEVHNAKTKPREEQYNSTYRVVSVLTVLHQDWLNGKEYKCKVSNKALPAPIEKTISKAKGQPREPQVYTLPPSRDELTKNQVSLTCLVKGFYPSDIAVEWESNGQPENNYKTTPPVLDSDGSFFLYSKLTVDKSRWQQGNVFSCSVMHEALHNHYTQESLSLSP
light: B1 light
notes: Substitution in both H chains; position in EU numbering; also called S239D homodimerized antibody
B12: GpH7-B3 variant S337_14T/GpL16-k0 (Ho Ab) (antibody, human IgG1, kappa)
heavy: not shown
light: B1 light
notes: Substitution in both H chains; position in EU numbering; also called S337T homodimerized antibody
B13: GpH7-B3 variant K334_16H/GpL16-k0 (Ho Ab) (antibody, human IgG1, kappa)
heavy: not shown
light: B1 light
notes: Substitution in both H chains; position in EU numbering; also called K334H homodimerized antibody
B14: GpH7-B3 variant S267_09D/GpL16-k0 (Ho Ab) (antibody, human IgG1, kappa)
heavy: not shown
light: B1 light
notes: Substitution in both H chains; position in EU numbering; also called S267D homodimerized antibody
B15: GpH7-B3 variant K334_18N/GpL16-k0 (Ho Ab) (antibody, human IgG1, kappa)
heavy: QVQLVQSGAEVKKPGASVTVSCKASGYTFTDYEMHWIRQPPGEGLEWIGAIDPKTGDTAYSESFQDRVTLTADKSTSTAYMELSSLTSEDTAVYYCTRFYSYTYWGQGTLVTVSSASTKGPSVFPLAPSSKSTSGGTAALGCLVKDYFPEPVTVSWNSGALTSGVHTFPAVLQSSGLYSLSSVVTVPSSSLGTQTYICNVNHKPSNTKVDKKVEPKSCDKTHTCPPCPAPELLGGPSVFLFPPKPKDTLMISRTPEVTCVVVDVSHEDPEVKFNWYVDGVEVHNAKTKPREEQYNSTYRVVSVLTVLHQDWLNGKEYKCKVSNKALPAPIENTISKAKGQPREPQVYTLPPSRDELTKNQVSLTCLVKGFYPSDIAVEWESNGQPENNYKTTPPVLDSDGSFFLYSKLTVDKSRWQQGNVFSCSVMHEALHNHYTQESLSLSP
light: B1 light
notes: Substitution in both H chains; position in EU numbering; also called K334N homodimerized antibody
B16: GpH7-B3 variant L328_07I/GpL16-k0 (Ho Ab) (antibody, human IgG1, kappa)
heavy: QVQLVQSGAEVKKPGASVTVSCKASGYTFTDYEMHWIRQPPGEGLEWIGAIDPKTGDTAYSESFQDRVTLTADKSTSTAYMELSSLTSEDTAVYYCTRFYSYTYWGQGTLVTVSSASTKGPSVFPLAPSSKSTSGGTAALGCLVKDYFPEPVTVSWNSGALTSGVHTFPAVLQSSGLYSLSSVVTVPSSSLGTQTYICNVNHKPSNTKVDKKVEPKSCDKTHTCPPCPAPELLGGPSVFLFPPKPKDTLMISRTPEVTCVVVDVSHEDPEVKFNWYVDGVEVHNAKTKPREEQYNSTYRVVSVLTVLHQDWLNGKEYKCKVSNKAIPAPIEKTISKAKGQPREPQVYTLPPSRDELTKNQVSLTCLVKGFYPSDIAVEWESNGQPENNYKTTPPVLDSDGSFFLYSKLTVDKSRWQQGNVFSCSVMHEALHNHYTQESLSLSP
light: B1 light
notes: Substitution in both H chains; position in EU numbering; also called L328I homodimerized antibody
B17: GpH7-B3 variant P271_08L/GpL16-k0 (Ho Ab) (antibody, human IgG1, kappa)
heavy: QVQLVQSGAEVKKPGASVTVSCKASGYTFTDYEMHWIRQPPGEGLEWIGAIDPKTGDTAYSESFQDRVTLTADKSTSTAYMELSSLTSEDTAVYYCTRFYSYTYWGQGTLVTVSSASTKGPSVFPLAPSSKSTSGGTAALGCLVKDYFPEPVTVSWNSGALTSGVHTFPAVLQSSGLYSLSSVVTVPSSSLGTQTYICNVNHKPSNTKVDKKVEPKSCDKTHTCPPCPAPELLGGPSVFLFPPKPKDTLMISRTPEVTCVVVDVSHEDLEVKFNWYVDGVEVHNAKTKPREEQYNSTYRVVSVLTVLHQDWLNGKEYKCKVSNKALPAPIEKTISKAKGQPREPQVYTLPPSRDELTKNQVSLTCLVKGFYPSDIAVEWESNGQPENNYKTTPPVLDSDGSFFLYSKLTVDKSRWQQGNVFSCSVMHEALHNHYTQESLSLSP
light: B1 light
notes: Substitution in both H chains; position in EU numbering; also called P271L homodimerized antibody
B18: GpH7-B3 variant S267_07I/GpL16-k0 (Ho Ab) (antibody, human IgG1, kappa)
heavy: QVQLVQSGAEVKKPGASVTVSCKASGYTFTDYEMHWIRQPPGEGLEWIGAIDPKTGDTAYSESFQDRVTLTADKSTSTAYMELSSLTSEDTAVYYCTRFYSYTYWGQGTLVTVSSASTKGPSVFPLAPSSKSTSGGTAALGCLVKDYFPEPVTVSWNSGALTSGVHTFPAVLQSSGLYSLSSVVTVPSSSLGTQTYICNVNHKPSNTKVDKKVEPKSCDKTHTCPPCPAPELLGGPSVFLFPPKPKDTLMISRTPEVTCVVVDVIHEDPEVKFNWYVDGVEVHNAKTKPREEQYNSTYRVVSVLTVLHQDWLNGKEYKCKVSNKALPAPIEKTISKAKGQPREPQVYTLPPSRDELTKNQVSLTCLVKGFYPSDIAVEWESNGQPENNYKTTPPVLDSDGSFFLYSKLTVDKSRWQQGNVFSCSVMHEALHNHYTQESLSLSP
light: B1 light
notes: Substitution in both H chains; position in EU numbering; also called S267I homodimerized antibody
B19: GpH7-B3 variant S337_10E/GpL16-k0 (Ho Ab) (antibody, human IgG1, kappa)
heavy: not shown
light: B1 light
notes: Substitution in both H chains; position in EU numbering; also called S337E homodimerized antibody
B20: GpH7-B3 variant L328_15Y/GpL16-k0 (Ho Ab) (antibody, human IgG1, kappa)
heavy: not shown
light: B1 light
notes: Substitution in both H chains; position in EU numbering; also called L328Y homodimerized antibody
B21: GpH7-B3 variant S239_18N/GpL16-k0 (Ho Ab) (antibody, human IgG1, kappa)
heavy: not shown
light: B1 light
notes: Substitution in both H chains; position in EU numbering; also called S239N homodimerized antibody
B22: GpH7-B3 variant S267_03V/GpL16-k0 (Ho Ab) (antibody, human IgG1, kappa)
heavy: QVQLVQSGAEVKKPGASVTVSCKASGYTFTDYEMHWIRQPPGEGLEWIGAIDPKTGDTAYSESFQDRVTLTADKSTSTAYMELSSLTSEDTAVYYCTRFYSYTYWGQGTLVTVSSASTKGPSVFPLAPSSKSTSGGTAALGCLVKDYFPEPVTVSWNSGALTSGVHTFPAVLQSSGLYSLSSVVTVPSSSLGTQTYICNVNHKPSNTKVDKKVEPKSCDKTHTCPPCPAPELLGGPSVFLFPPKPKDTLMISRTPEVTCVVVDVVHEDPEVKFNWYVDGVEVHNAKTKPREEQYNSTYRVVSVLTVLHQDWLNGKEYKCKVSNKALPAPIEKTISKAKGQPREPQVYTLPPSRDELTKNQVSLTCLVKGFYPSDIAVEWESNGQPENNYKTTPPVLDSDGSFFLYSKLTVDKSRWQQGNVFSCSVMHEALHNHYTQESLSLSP
light: B1 light
notes: Substitution in both H chains; position in EU numbering; also called S267V homodimerized antibody

target: T1, FcγRIIb extracellular domain with …; test: SPR (Biacore), antibody captured on antigen-peptide chip, FcgRIIb as analyte; binding relative to GpH7-B3/GpL16-k0 (HoCon Ab) = 100

Ho/Con_2b	Binder
229 % of control	B1
109 % of control	B2
126 % of control	B3
115 % of control	B4
113 % of control	B5
171 % of control	B6
235 % of control	B7
108 % of control	B8
146 % of control	B9
396 % of control	B10
224 % of control	B11
110 % of control	B12
124 % of control	B13
327 % of control	B14
128 % of control	B15
188 % of control	B16
113 % of control	B17
213 % of control	B18
109 % of control	B19
272 % of control	B20
125 % of control	B21
206 % of control	B22
